{"source": "the DeepSol protein solubility set", "data": [{"experiment": "soluble on expression in E. coli; label from the status in PepcDB or PDB records", "values": [{"sequence": "MGSDKIHHHHHHMQNIVDNTLLLSYLNNEYIKKLFQQFNHPFKILRYEAKETVLHEGEMIDGLYIQMSGRTKITSSVITGKALLLRFCSAVSIMGDIELIQSVNIQSHVTSEQQTDFLFIDKNYVTSYLLQDVIFLQELIHHVTYKLQTCTTASRINLLASVETRFASYLCTARNPSNLFGREIHTKDHHEIASLIGTTTRHLNRVIEKLIANNIMHKNNKQIVVDDWKAIDTLSNGLRYE", "soluble on expression in E. coli": "not soluble"}, {"sequence": "MKSSKASEEDLAAATEKMQSMKGKKSQAAAALEAEQAKAEKRLSCLLKARTKLSFRVIRDGIKCHGGIHLKKQSEKAELDISVTNTAINNLPSDADIVITHKDLTDRAKAKLPNATHISVDNFLNSPKYDELIEKLKSNLIEREYCHASTRKGNIKLNQTVSSKEEAIKLAGQTLIDNGYVTEDYISKMFDREETSSTFMGNFIAIPHGTEEAKSEVLHSGISIIQIPEGVEYGEGNTAKVVFGIAGKNNEHLDIL", "soluble on expression in E. coli": "soluble"}, {"sequence": "MKTVMLMLTSLLMAGCSVLGKREAAEPPYELLKHDGAFEVRRYGPMVIAETILDEKSYSAASGKGFNRLAGYIFGKNRSKTSISMTAPVLQERSSEKISMTAPVLQQPQKGGWSMAFVLPEGFTLQSAPEPLDPEVKLRELPPSTIAVVTFSGLHSAANLEKYSRQLQAWLKKQGYRALSEPKLASYDPPWTIPFLRRNEVQIRIEPDHGESGKELEHHHHHH", "soluble on expression in E. coli": "soluble"}, {"sequence": "MIEYTSGDILRCEADALVNTVNCVGVMGRGIALQFKNMYPANFKAYEAACKREEVQPGRMFVFETKQLTPPRLIINFPTKRHWRGKSRIEDIEAGLVDLVNVIRDKNIRSIAIPPLGAGLGGLDWKEVRPRIEHALGELEGVQVIVYEPNGAPASDKMAHVREVPKMTSGRAALVELMQRYLSGLLDPFVTLLEVHKLMYFMQEAGEPLRLDYIKHHYGPYAKNLRHVLNAIEGHLIAGYADGGDAPDKPLSLVPGAVAEAKSFLDQHEISRARFERVTRLVEGFESPYGLELLATVHWVIHREGATQSDSVKRQIYQWNDRKRQFTQRQLVIAEERLRSQGWLSPETTFTYMAGDPLEHHHHHH", "soluble on expression in E. coli": "not soluble"}, {"sequence": "MAHHHHHHMTEYEEKERKTSLAALRRFVKHCGPTRFTFITRIPLSRNTNQVNGTLLLENGDLTVCAQDMKANIADIREDIASFSVPQHQDFIRAFEEAKNMLKNELAALQEHKSILMVQYEMARP", "soluble on expression in E. coli": "not soluble"}, {"sequence": "MGSDKIHHHHHHMTIRQTKEANLLISERADFQVTAKIEQMAKGYIDRWHQHPWHQIAFPFEGILQTKVADSQFVIPHSGMLFIPANTPHESFVVTDTKFIGIYLNPQFQNHFPLTAKAISVTPFLRELVLHINHGVSNSIVSEEELSKLVAVLIDQISSGESYQMKLLLPSDRRLMIIFKALMTDPQLNTKLSDWAKQVGASERTLSRLFTKELGMTFPLWRQHLRLVSSLNLLETNLSVQEIAFKVGYNADSSFIYAFKKLFQQTPQQYRHSGFKLSSRINDK", "soluble on expression in E. coli": "not soluble"}, {"sequence": "MIDVRKYIDNAALKPHLSEKEIEEFVLKSEELGIYAVCVNPYHVKLASSIAKKVKVCCVIGFPLGLNKTSVKVKEAVEAVRDGAQELDIVWNLSAFKSEKYDFVVEELKEIFRETPSAVHKVIVETPYLNEEEIKKAVEICIEAGADFIKTSTGFAPRGTTLEEVRLIKSSAKGRIKVKASGGIRDLETAISMIEAGADRIGTSSGISIAEEFLKRHLILEHHHHHH", "soluble on expression in E. coli": "soluble"}, {"sequence": "MGSDKIHHHHHHMDKQLWEKAVAFHGHECPGLAIGFRACEAVQEKMGLKFSQDEEVVCVTENDACGADAVQVITGCSFGKGNLIYRGTGKMAFSFFSRNTGESMRIVLKPSSSEMDRQERQNYILTAPMDDVFEFKKPGFTLPKQARLFKTVICEVCGEGAPEHKMRLQEGKKVCLDCFEDYSRGY", "soluble on expression in E. coli": "not soluble"}, {"sequence": "MGSDKIHHHHHHMSINSREVLAEKVKNAVNNQPVTDMHTHLFSPNFGEILLWDIDELLTYHYLVAEVMRWTDVSIEAFWAMSKREQADLIWEELFIKRSPVSEACRGVLTCLQGLGLDPATRDLQVYREYFAKKTSEEQVDTVLQLANVSDVVMTNDPFDDNERISWLEGKQPDSRFHAALRLDPLLNEYEQTKHRLRDWGYKVNDEWNEGSIQEVKRFLTDWIERMDPVYMAVSLPPTFSFPEESNRGRIIRDCLLPVAEKHNIPFAMMIGVKKRVHPALGDAGDFVGKASMDGVEHLLREYPNNKFLVTMLSRENQHELVVLARKFSNLMIFGCWWFMNNPEIINEMTRMRMEMLGTSFIPQHSDARVLEQLIYKWHHSKSIIAEVLIDKYDDILQAGWEVTEEEIKRDVADLFSRNFWRFVGRNDHVTSVKVEQQT", "soluble on expression in E. coli": "not soluble"}, {"sequence": "MSLTPGRFLGWENADTASRTASDAIAVMDRRTWQALTTGHVELPCRRIHAGLWFRLLRTLLDELNTPLSACGTYAGYLRQVWQGCGHPLRAGQSLWRPYETLNPAIRLQMLEAAATAISLIEVRDISPPGEHAKLFWSELQTGFTSGLPAKPPKPEPVNHWQRAVQAISEAIIEARHDPETARSLFAMASYGRRDPASLEQLRATFAKEGIPPEFLSHYEADGPFACLRQNDGLSDKEGHHHHHH", "soluble on expression in E. coli": "not soluble"}, {"sequence": "MKSGIYQIKNTLNNKVYVGSAKDFEKAWKRHFKDLEKGCHSSIKLQRSFNKHGNVFECSILEEIPYEKDLIIERENFWIKELNSKINGYNIADATFG", "soluble on expression in E. coli": "soluble"}, {"sequence": "MGSDKIHHHHHHMAVRIVSRQPLTKGWSTDQKYKVQLEDGRLGLLRIAERPAYEAKRLEFQLVENLFGLGLPVAEPLSFWADDLSVYTLYEWVEGQDMNEVATSLSDSVLYDLGCQSGKFLRTLHALPIDQSQRDWNSFYQVKIDNKLAAYQAASHSYPTGPAMIDFVQANRHLLEGRPIAYHHGDFHTGNFLLGPDGKLKILDFDRYDIGDPWEEFNRLIFTADLSPAFARGQVDAYFDGAIPEEFWKLMALYVTVNCLAALSWAEQVDSEQIPMMKLQAQKISEWYEYFNHHLPKWYM", "soluble on expression in E. coli": "not soluble"}, {"sequence": "GEADSGDGDSSEYQDGKEFGIGDLVWGKIKGFSWWPAMVVSWKATSKRQAMSGMRWVQWFGDGKFSEVSADKLVALGLFSQHFNLATFNKLVSYRKAMYHALEKARVRAGKTFPSSPGDSLEDQLKPMLEWAHGGFKPTGIEGLKPNNTQP", "soluble on expression in E. coli": "soluble"}, {"sequence": "MPVNNENLTSVLDARPFELSEEQKSPLFKANLLAELVHHYQCNEMYRKFCQKNKFDPLVFDGEVADIPPIPVHIFKAIGHKLSSVSDDTIKAKLQSSATSGVPSTILLDKVTARRQTRAMARVMQEVLGPKRRPFCIMDIDPTSPNATNLGARIAAVKGYLNFASTSKYFIDADSPSAPLEFLEQKFVEHLNSLASEEPLIIFGFTFVLYHTVFKTLKDKGISFQLPKGSQVIHIGGWKKLESEKVDKITFNRDIASVLGISPDDVVDIYGFTEQMGLNYPDCKAGWKHIHAYSDVIIRDESNLEVCGPGKVGLLEFVSPLPHSYPGNVVLTDDLGVIEESLCECGKAGKRFKVIGRAKKAEVRGCGDVMSEKLTKKPSYKPLSQQEERLTIYHSPIFLDDTMLEHHHHHH", "soluble on expression in E. coli": "soluble"}, {"sequence": "MIIGLLNQKGGVGKTTLSVNLAASFARTGARVLLIDVDPQGSALDWAAAREGAPLFPVVGLPRATVHKEITQIGHNYDHIIIDGPPRVTDLARSALMASDFVLIPVQPSPYDIWAADGIVKLIDEARVYKENLKSAFVINRKIVNTAIGRDVGEALGVYPVHVLSANVAQRVIFAEAATQGKTVYEVDKQGLAAAEIEAVAAEIKELAQLEHHHHHH", "soluble on expression in E. coli": "not soluble"}, {"sequence": "MKINQMKKDQLFEGFYLIKSAEVRKTRAGKDFISLTFQDDTGEISGNLWDAQPYNVEEFTAGKVVFMKGRREVYNGTPQVNQITLRNVRPGEPNDPKDFKEKAPVSVTEVRDYLEQMLFKIENATWQRIVRALYRKYDKEFYTYPAAKTNHHAFESGLAYHTATMVRLADSIGDIYPDLNKSLLFAGIMLHDLAKVIELTGPDNTEYTVRGNLIGHISLINEEITKVISELQIDDTKEEVIVLRHVILSHHGQLEYGSPVRPRIMEAEIIHMIDNIDANMMMMTTALSRVSEGEMTNRIFAMDNRSFYKPNY", "soluble on expression in E. coli": "not soluble"}, {"sequence": "VYWLNWTDRTRKFTIYNDIIERSLLTLKMMSFYNGAVLASLTTSLPEAVGEVRNWDYRFCWLRDASMSIETLFKIGHADATRKFMKFIQSTFVAEHDTYQIMYGIRGERKLTEVILDHLSGYKNSQPVRIGNDAYHQRQNDSFGYLMDLIYQYYRLMPGTLDEIEDMWEMVKSIMTTVMEDWRKPDKGIWEIRGEGQHFVSSKVMCWVALDRGARIARILNKYENSRRWEEEADAIKADVMRNGWKEEIQSFSQAYGNLDLDSSLLLMEPYGFIDADDIRYHKTVKAVKQSLLHKGLMYRYNTHDDFGCPSSAFTICTFWLIRALYVIGEKDEARCLFDEILQYSNHLGLFSEDIDFETKEQLGNFPQAYSHLALVNTAVLFAE", "soluble on expression in E. coli": "not soluble"}, {"sequence": "MSKVNEITRESWILSTFPEWGTWLNEEIEQTVVEPNTFSMWWLGCTGIWLKSAGNTNLSIDFWCGTGKKTQKNRLMNTQHQMMRMGGVEALQPNLRTSIFPLDPFAIKEIDAVLASHDHADHIDVNVAAAVLQNCGEHVKFIGPQACVDLWLGWGVPQERCIVAKVGDVLEIGDVKIRVLDSFDRTALVTLPKGVSSYDKAILDGMDERAVNYLIETSGGSVYHSGDSHYSNYYAKHGNDYQIDVALLSYGENPRGVTDKMTSSDVLRAAESLDCQVVVPFHHDIWANFQNDPREIEVLWNMKKDRLQYQFAPFFWQVGGKYTYPTDKGRMHYQHFRGFQDIFKNEPELPYKAFL", "soluble on expression in E. coli": "soluble"}, {"sequence": "MKKVIIAGNGPSLKEIDYSRLPNDFDVFRCNQFYFEDKYYLGKKCKAVFYNPSLFFEQYYTLKHLIQNQEYETELIMCSNYNQAHLENENFVKTFYDYFPDAHLGYDFFKQLKDFNAYFKFHEIQFNQRITSGVYMCAVAIALGYKEIYLSGIDFYQNGSSYAFDTKQKNLLKLAPNFKNDNSHYIGHSKNTDIKALEFLEKTYKIKLYCLCPNSLLANFIGLAPNLNSNFIIQEKNNYTKDILIPSSEAYGKFSKNINFKKIKIKENIYYKLIKDLLRLPSDIKHYFKGK", "soluble on expression in E. coli": "soluble"}, {"sequence": "MGSDKIHHHHHHMIWNIDYFCNLRCKSCNAWQGKIFFPEDQIDKHLQEMKNNGIKIVSVTGGEPTLNKNVVDIIRKLKENHFFTHIATNGTNPYVLRKLYPYLDAVTISLDSNIPEEHNAYRGLKIFDTVVSNIKEAKSKVKIVTANMLVTNFNYFKVGEIADFANNELGVPLSMCFPEQDAYYFQDFQVTNDMIRQAFSYAYENYHKHVFGNMRSYYKEAVDFIDGKGSRACKAGQEIFYTDYRGKVHPCFEHVEVVLNKKPTWDIYDNKCHKCFTECFLEPSIDHTFEAASLIGKIWWFNHVKRRDIKYIETKRPKQVPS", "soluble on expression in E. coli": "not soluble"}, {"sequence": "MAMSKVKSITRESWILSTFPEWGSWLNEEIEQEQVAPGTFAMWWLGCTGIWLKSEGGTNVCVDFWCGTGKQSHGNPLMKQGHQMQRMAGVKKLQPNLRTTPFVLDPFAIRQIDAVLATHDHNDHIDVNVAAAVMQNCADDVPFIGPKTCVDLWIGWGVPKERCIVVKPGDVVKVKDIEIHALDAFDRTALITLPADQKAAGVLPDGMDDRAVNYLFKTPGGSLYHSGDSHYSNYYAKHGNEHQIDVALGSYGENPRGITDKMTSADMLRMGEALNAKVVIPFHHDIWSNFQADPQEIRVLWEIKKDRLKYGFKPFIWQVGGKFTWPLDKDNFEYHYPRGFDDCFTIEPDLPFKSFL", "soluble on expression in E. coli": "not soluble"}]}]}
